Results from patent publication US20260207704A1, “STAPLED PEPTIDES AND METHODS THEREOF” (priority 2022, published 2026).
*1 amine or outer side, *2 acyl side, *3 side chain or, on linkers, in order; H or OH if unused. Bridges are numbered along the chain shown (N, C = ends). Primed or numbered codes have the meaning given here. [ ]: non-standard residue; d: D form. PyrS2(6) = (S)-3-amino-1-((pent-4-en-1-yloxy)carbonyl)pyrrolidine-3-carboxylic acid, stapled with another olefin-containing amino acid residue through the olefin group, O=C(OCCCC=[*:3])N1CC[C@@](N[*:1])(C(=O)[*:2])C1; B5(4) = 2-amino-2-(pent-4-en-1-yl)hept-6-enoic acid, stapled through each of its two olefin groups with other olefin-containing amino acid residues, O=C(C(CCCC=[*:3])(CCCC=[*:4])N[*:1])[*:2]; PyrS2 = (S)-3-amino-1-((pent-4-en-1-yloxy)carbonyl)pyrrolidine-3-carboxylic acid, olefin staple residue, C=CCCCOC(=O)N1CC[C@@](N[*:1])(C(=O)[*:2])C1; PyrS2(3) = (S)-3-amino-1-((pent-4-en-1-yloxy)carbonyl)pyrrolidine-3-carboxylic acid, olefin residue, C=CCCCOC(=O)N1CC[C@@](N[*:1])(C(=O)[*:2])C1; PyrS2(5) = (S)-3-amino-1-((pent-4-en-1-yloxy)carbonyl)pyrrolidine-3-carboxylic acid, C=CCCCOC(=O)N1CC[C@@](N[*:1])(C(=O)[*:2])C1; B5(5) = 2-amino-2-(pent-4-en-1-yl)hept-6-enoic acid (two olefin arms), C=CCCCC(CCCC=C)(N[*:1])C(=O)[*:2]; B5(3) = 2-amino-2-(pent-4-en-1-yl)hept-6-enoic acid, two olefin arms, C=CCCCC(CCCC=C)(N[*:1])C(=O)[*:2]; 2F3MeF″ = aromatic residue, Cc1cccc(C[C@H](N[*:1])C(=O)[*:2])c1F; Phe(3-COOH) = N[C@@H](Cc1cccc(C(=O)O)c1)C(=O)O; Bta = N[C@@H](Cc1csc2ccccc12)C(=O)O; αAllylPro = C=CC[C@@]1(C(=O)O)CCCN1; tBuAla = CC(C)(C)C[C@H](N)C(=O)O; 3Thi = N[C@@H](Cc1ccsc1)C(=O)O; Thr(ol) = C[C@@H](O)[C@H](N)CO; TriAzLys(3) = not defined here; 2F3MeF(4) = Phe analogue; Orn = NCCC[C@H](N)C(=O)O; AsnR = not defined here; GlnR = not defined here; sAla = not defined here; B5 = not defined here; Aib = CC(C)(N)C(=O)O

B1: I-60 (peptide)
peptide: Ac-[αAllylPro]D[tBuAla][B5(3)]D[Phe(3-COOH)]QAFK[PyrS2(3)][2F3MeF″][Bta][GlnR]A-NH2
modifications: bridge 10-14; not fully specified (bridges); printed as Ac-PL3-Asp-Npg-B5-Asp-3COOHF-Gln-Ala-Phe-Lys*3-PyrS2-2F3MeF-BztA-GlnR*3-Ala-NH2; reading uncertain
B2: I-62 (peptide)
peptide: Ac-[αAllylPro]D[tBuAla][B5(3)]D[Phe(3-COOH)]AAFK[PyrS2(3)][3Thi][Bta][GlnR][Thr(ol)]
modifications: bridge 10-14; not fully specified (bridges); printed as Ac-PL3-Asp-Npg-B5-Asp-3COOHF-Ala-Ala-Phe-Lys*3-PyrS2-3Thi-BztA-GlnR*3-Throl; reading uncertain
B3: I-38 (peptide)
peptide: Ac-[αAllylPro]D[tBuAla][B5(5)]D[Phe(3-COOH)]AAF[GlnR][PyrS2(5)][3Thi][Bta][Orn]-NH2
modifications: bridge 10-14; not fully specified (bridges); printed as Ac-PL3-Asp-Npg-B5-Asp-3COOHF-Ala-Ala-Phe-GlnR*3-PyrS2-3Thi-BztA-Orn*3-NH2; reading uncertain
B4: I-42 (peptide)
peptide: Ac-[αAllylPro]D[tBuAla][B5(5)]D[Phe(3-COOH)]AAFK[PyrS2(5)][3Thi][Bta][GlnR]A-NH2
modifications: bridge 10-14; reading uncertain; also: PL3/B5/PyrS2 staple links not placed, printed as Ac-PL3-Asp-Npg-B5-Asp-3COOHF-Ala-Ala-Phe-Lys*3-PyrS2-3Thi-BztA-GlnR*3-Ala-NH2
B5: I-63 (peptide)
peptide: Ac-[αAllylPro]D[tBuAla][B5(3)]D[Phe(3-COOH)]AAFK[PyrS2(3)][3Thi][Bta][GlnR][Thr(ol)]
modifications: bridge 10-14; not fully specified (bridges); printed as Ac-PL3-Asp-Npg-B5-Asp-3COOHF-Ala-Ala-Phe-Lys*3-PyrS2-3Thi-BztA-GlnR*3-Throl; reading uncertain
B6: I-30 (peptide)
peptide: Ac-[αAllylPro]D[tBuAla][B5(4)]D[Phe(3-COOH)][TriAzLys(3)]AF[sAla][PyrS2(6)][3Thi][Bta]Q-NH2
modifications: triazole 7-10; not fully specified (bridges); printed as Ac-PL3-Asp-Npg-B5-Asp-3COOHF-TriAzLys*3-Ala-Phe-sAla*3-PyrS2-3Thi-BztA-Gln-NH2; reading uncertain
B7: I-25 (peptide)
peptide: Ac-[αAllylPro]D[tBuAla][B5(4)]D[Phe(3-COOH)]AAF[sAla][PyrS2(6)][2F3MeF(4)][Bta][TriAzLys(3)]-NH2
modifications: triazole 10-14; not fully specified (bridges); printed as Ac-PL3-Asp-Npg-B5-Asp-3COOHF-Ala-Ala-Phe-sAla*3-PyrS2-2F3MeF-BztA-TriAzLys*3-NH2; reading uncertain
B8: I-57 (peptide)
peptide: Ac-[αAllylPro]D[tBuAla][B5(3)]D[Phe(3-COOH)]AAFK[PyrS2(3)][2F3MeF″][Bta][GlnR]A-NH2
modifications: bridge 10-14; not fully specified (bridges); printed as Ac-PL3-Asp-Npg-B5-Asp-3COOHF-Ala-Ala-Phe-Lys*3-PyrS2-2F3MeF-BztA-GlnR*3-Ala-NH2; reading uncertain
B9: I-33 (peptide)
peptide: Ac-[αAllylPro]D[tBuAla][B5(4)]D[Phe(3-COOH)]AAF[GlnR][PyrS2(6)][3Thi][Bta]K-NH2
modifications: bridge 10-14; not fully specified (bridges); printed as Ac-PL3-Asp-Npg-B5-Asp-3COOHF-Ala-Ala-Phe-GlnR*3-PyrS2-3Thi-BztA-Lys*3-NH2; reading uncertain
B10: I-66 (peptide)
peptide: Ac-[αAllylPro]D[tBuAla][B5]D[Phe(3-COOH)][Aib]AFK[PyrS2][3Thi][Bta][GlnR]A-NH2
modifications: staple 1-4, 4-11; lactam 10-14; not fully specified; printed as Ac-PL3-Asp-Npg-B5-Asp-3COOHF-Aib-Ala-Phe-Lys*3-PyrS2-3Thi-BztA-GlnR*3-Ala-NH2; reading uncertain
B11: I-37 (peptide)
peptide: Ac-[αAllylPro]D[tBuAla][B5(5)]D[Phe(3-COOH)]AAF[Orn][PyrS2(5)][3Thi][Bta][GlnR]-NH2
modifications: bridge 10-14; not fully specified (bridges); printed as Ac-PL3-Asp-Npg-B5-Asp-3COOHF-Ala-Ala-Phe-Orn*3-PyrS2-3Thi-BztA-GlnR*3-NH2; reading uncertain
B12: I-34 (peptide)
peptide: Ac-[αAllylPro]D[tBuAla][B5(5)]D[Phe(3-COOH)]AAFK[PyrS2(5)][3Thi][Bta][AsnR]-NH2
modifications: bridge 10-14; not fully specified (bridges); printed as Ac-PL3-Asp-Npg-B5-Asp-3COOHF-Ala-Ala-Phe-Lys*3-PyrS2-3Thi-BztA-AsnR*3-NH2; reading uncertain
B13: I-29 (peptide)
peptide: Ac-[αAllylPro]D[tBuAla][B5(4)]DD[TriAzLys(3)]AF[sAla][PyrS2(6)][3Thi][Bta]Q-NH2
modifications: triazole 7-10; not fully specified (bridges); printed as Ac-PL3-Asp-Npg-B5-Asp-Asp-TriAzLys*3-Ala-Phe-sAla*3-PyrS2-3Thi-BztA-Gln-NH2; reading uncertain
B14: I-39 (peptide)
peptide: Ac-[αAllylPro]D[tBuAla][B5(5)]D[Phe(3-COOH)]AAF[Orn][PyrS2(5)][3Thi][Bta][AsnR]-NH2
modifications: bridge 10-14; not fully specified (bridges); printed as Ac-PL3-Asp-Npg-B5-Asp-3COOHF-Ala-Ala-Phe-Orn*3-PyrS2-3Thi-BztA-AsnR*3-NH2; reading uncertain
B15: I-55 (peptide)
peptide: Ac-[αAllylPro]D[tBuAla][B5(3)]D[Phe(3-COOH)]AAFK[PyrS2(3)][2F3MeF″][Bta][GlnR]-NH2
modifications: bridge 10-14; not fully specified (bridges); printed as Ac-PL3-Asp-Npg-B5-Asp-3COOHF-Ala-Ala-Phe-Lys*3-PyrS2-2F3MeF-BztA-GlnR*3-NH2; reading uncertain
B16: I-56 (peptide)
peptide: Ac-[αAllylPro]D[tBuAla][B5(3)]D[Phe(3-COOH)]AAFK[PyrS2(3)][2F3MeF″][Bta][AsnR]-NH2
modifications: bridge 10-14; not fully specified (bridges); printed as Ac-PL3-Asp-Npg-B5-Asp-3COOHF-Ala-Ala-Phe-Lys*3-PyrS2-2F3MeF-BztA-AsnR*3-NH2; reading uncertain
B17: I-31 (peptide)
peptide: Ac-[αAllylPro]D[tBuAla][B5(4)]D[Phe(3-COOH)][TriAzLys(3)]AF[sAla][PyrS2(6)][2F3MeF(4)][Bta]Q-NH2
modifications: triazole 7-10; not fully specified (bridges); printed as Ac-PL3-Asp-Npg-B5-Asp-3COOHF-TriAzLys*3-Ala-Phe-sAla*3-PyrS2-2F3MeF-BztA-Gln-NH2; reading uncertain
B18: I-43 (peptide)
peptide: Ac-[αAllylPro]D[tBuAla][B5(5)]D[Phe(3-COOH)]AAF[GlnR][PyrS2(5)][3Thi][Bta]KA-NH2
modifications: bridge 10-14; reading uncertain; also: PL3/B5/PyrS2 staple links not placed, printed as Ac-PL3-Asp-Npg-B5-Asp-3COOHF-Ala-Ala-Phe-GlnR*3-PyrS2-3Thi-BztA-Lys*3-Ala-NH2
B19: I-32 (peptide)
peptide: Ac-[αAllylPro]D[tBuAla][B5(4)]D[Phe(3-COOH)]AAFK[PyrS2(6)][3Thi][Bta][GlnR]-NH2
modifications: bridge 10-14; not fully specified (bridges); printed as Ac-PL3-Asp-Npg-B5-Asp-3COOHF-Ala-Ala-Phe-Lys*3-PyrS2-3Thi-BztA-GlnR*3-NH2; reading uncertain
B20: I-61 (peptide)
peptide: Ac-[αAllylPro]D[tBuAla][B5(3)]D[Phe(3-COOH)]QAFK[PyrS2(3)][2F3MeF″][Bta][AsnR]A-NH2
modifications: bridge 10-14; not fully specified (bridges); printed as Ac-PL3-Asp-Npg-B5-Asp-3COOHF-Gln-Ala-Phe-Lys*3-PyrS2-2F3MeF-BztA-AsnR*3-Ala-NH2; reading uncertain

target: beta-catenin (human); experiment: cell-based or functional assay
Sequence (B6V8E6 146-665 limits assumed): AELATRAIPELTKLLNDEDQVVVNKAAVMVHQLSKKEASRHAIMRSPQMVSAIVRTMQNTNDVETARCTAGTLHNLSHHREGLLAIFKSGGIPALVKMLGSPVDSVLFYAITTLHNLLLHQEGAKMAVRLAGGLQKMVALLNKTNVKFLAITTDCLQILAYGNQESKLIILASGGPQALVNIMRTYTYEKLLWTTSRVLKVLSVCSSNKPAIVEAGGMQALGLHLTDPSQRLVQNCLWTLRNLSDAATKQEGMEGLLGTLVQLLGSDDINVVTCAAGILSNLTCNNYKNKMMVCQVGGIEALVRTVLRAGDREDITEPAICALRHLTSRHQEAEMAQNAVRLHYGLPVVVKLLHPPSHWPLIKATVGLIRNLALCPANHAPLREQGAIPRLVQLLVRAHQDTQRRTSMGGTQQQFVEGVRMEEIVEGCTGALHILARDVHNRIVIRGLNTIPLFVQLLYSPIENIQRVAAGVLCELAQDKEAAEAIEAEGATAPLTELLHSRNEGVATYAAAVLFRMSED

NanoBRET Abs IC50 (bin >3.0 uM)	NanoBRET Abs IC50 (bin >1.5 uM)	NanoBRET Abs IC50	AXIN2 expression IC50, COLO320DM cells	AXIN2 expression IC50, DLD1 cells	SP5 expression IC50, DLD1 cells	Binder
< 10000 nM	–	–	–	–	–	B1
< 10000 nM	–	–	–	–	–	B2
< 10000 nM	–	–	–	–	–	B3
–	< 3000 nM	–	–	–	–	B4
< 10000 nM	–	–	–	–	–	B5
–	–	> 10000 nM	–	–	–	B6
< 10000 nM	–	–	–	–	–	B7
–	< 3000 nM	–	–	–	–	B8
< 10000 nM	–	–	–	–	–	B9
–	–	–	300 nM	1600 nM	1300 nM	B10
< 10000 nM	–	–	–	–	–	B11
< 10000 nM	–	–	–	–	–	B12
–	–	> 10000 nM	–	–	–	B13
–	–	> 10000 nM	–	–	–	B14
–	< 3000 nM	–	–	–	–	B15
< 10000 nM	–	–	–	–	–	B16
–	–	> 10000 nM	–	–	–	B17
–	< 3000 nM	–	–	–	–	B18
–	–	< 1500 nM	–	–	–	B19
–	–	> 10000 nM	–	–	–	B20

target: beta-catenin (human); experiment: fluorescence polarization

IC50	Binder
< 50 nM	B1
< 50 nM	B2
< 50 nM	B3
< 50 nM	B4
< 50 nM	B5
< 50 nM	B6
< 50 nM	B7
< 50 nM	B8
< 50 nM	B9
< 50 nM	B10
< 50 nM	B11
< 50 nM	B12
< 50 nM	B13
< 50 nM	B14
< 50 nM	B15
< 50 nM	B16
< 50 nM	B17
< 50 nM	B18
< 50 nM	B19
< 50 nM	B20
